# Fewer inactive variants are shown than the library holds.
# B1: TPR 5TU (parent)
# chain: GGAUCUUCUCGAUCUAACAAAAAAGACAAAUCUGCCACAAAGCUUGAGAGCAUCUUCGGAUGCAGAGGCGGCAGCCUUCGGUGGCGCGAUAGCGCCAACGUUCUCAACUAUGACACGCAAAACGCGUGCUCCGUUGAAUGGAGUUUAUCAUG
# Variants of: B1
# Experiment: polymerase ribozyme fitness, log enrichment relative to wild type (log ratio); higher = more active; in vitro selection for triplet polymerase activity
# Method in brief: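 To select mutant libraries of each subunit of a heterodimeric triplet polymerase ribozyme, built by PCR and transcribed, each was annealed with a biotinylated primer, partner subunit and triplets, then incubated frozen at −7 °C. Extended constructs were gel-excised, captured on streptavidin beads and amplified by RT-PCR, in one round carried out in triplicate. Illumina sequencing of input and output libraries kept genotypes with ≥10 input reads and ≥1 read per output. Fitness is the base-2 logarithm of genotype enrichment relative to wild-type enrichment, from inverse-variance-weighted replicate averages.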
row,Variant,polymerase ribozyme fitness (log ratio)
1,A40U G84U C85A,-0.755
2,A41G U55A C93U,-0.68
3,A40U G59C,0.561
4,A40U C51U C93U,-1.15
5,A41G U104G C125G,-1.21
6,A41G A47U C51U A52C G88A G136U,≤ -4.2
7,A41U C95U C99U G141C,-2.51
8,A40G U53G G84A A110G G136U,≤ -4.2
9,A40U C87U G88U,≤ -4.2
10,A41U C87A A120C U139C A142U,≤ -4.2
11,A41C C95U A119G,-0.978
12,A41U A52C,-2.05
13,A41U A52U,-2.47
14,A41C C87U,-1.35
15,A41C C87G,≤ -4.2
16,A41C U53A C76U,-1.65
17,A40U U56A G80C G84U C99A G143U,≤ -4.2
18,A40U C51U G83C,-0.981
19,A41C G83A C116A,-0.205
20,A41C G42C C43G G84U C95U C96G,≤ -4.2
21,A41U A89U A91C,-3.97

row,Variant,polymerase ribozyme fitness (log ratio)
1,A41G A52G C87U U144G U148G,-3.95
2,A41G C95U A122G C149A,≤ -4.2
3,A41C U53A U56A A66C C79G G84U,≤ -4.2
4,A41G G50C C125U A142G,-3.92
5,A41C G59C U82C G86C C108G G141U,≤ -4.2
6,A41C U148G,≤ -4.2
7,A41C U148C,-3.07
8,A41U C54U C63U U82A C95G A115U,≤ -4.2
9,A41G A49C U82G U90G G133A,≤ -4.2
10,A41G G65A G143U,-3.42
11,A41C U61A C76A A91U C99A A110U A150C,≤ -4.2
12,A41C G88A G92A A115U U151G,≤ -4.2
13,A40U C69A G143C,-2.79
14,A40G U45A U56A A60G G71C C118G,≤ -4.2
15,A41U C63G C85A G152U,≤ -4.2
16,A41G G83C C99A,-2.03
17,A40U C87A,-3.87
18,A40U C87U,-0.375
19,A40G U77G G80A C93A A107G A120C A121U,≤ -4.2
20,A40U A60C,-1.31
21,A41C G50C U55A C85G,≤ -4.2

row,Variant,polymerase ribozyme fitness (log ratio)
1,A41C U82C,-1.14
2,A40U A91C A120C C129A U151A,≤ -4.2
3,A41G C76A U77G G112A C116U A142C,≤ -4.2
4,A41U C57U G80A,-1.12
5,A40U C125U G128C,≤ -4.2
6,A41C U53C C125G U144A,-2.53
7,A41C A106C,-0.881
8,A41C U56A C87U,-1.41
9,A41C C114U U127C,-3.96
10,A40U C99U G117C,-0.515
11,A41G C54G G117U G124C,-1.19
12,A40U A89C C114U,-2.95
13,A41C A66U C87A A91U C103G A142U U145C,≤ -4.2
14,A40U U61A C79A U104G,≤ -4.2
15,A41C A49U U53A A60C G88U A122U U134A,≤ -4.2
16,A41C A137C,-3.61
17,A40U U55G C95U C105G C116G,-3.94
18,A40U U55A C85A C116A,-0.563
19,A41C U56A C85A G117A G140A,≤ -4.2
20,A41C U55A G94A G112U U134A,≤ -4.2
21,A41U C63U U102C,-3.6

row,Variant,polymerase ribozyme fitness (log ratio)
1,A40U G42U C69U A89G A91U A106C C149U,≤ -4.2
2,A40U A97U C108U,≤ -4.2
3,A41U A49C,-3.83
4,A41U C54A C79U G88C U148C,≤ -4.2
5,A41C G50A G86U A137C C149A,≤ -4.2
6,A40U G50C C85U,-2.29
7,A41C C79U G94U G100A C125A,-2.23
8,A40U C57G,0.32
9,A41C U56A U82A A150G,-1.45
10,A41C U53G,-3.43
11,A41G G83C G143C,-3.18
12,A41G U53A U56C C76A A98G,-1.92
13,A41C A91C A106U U148C,≤ -4.2
14,A40U C54U G71U C95A U146C G152A,≤ -4.2
15,A41G C57G C76U G94A A110G C116G U139G,-4.11
16,A41C C54A U82G G94U,-3.5
17,A41C C63G G92U,-0.619
18,A41C G50A G74A U82G C95U A107C,≤ -4.2
19,A40U G86A G141A,-1.06
20,A40U A47C A66C C76U C93A A98G C99G U104C A150U,≤ -4.2
